Experimental findings from patent US20220315554A1, “COMPOUNDS COMPRISING A […] LIGAND AND USE THEREOF” (priority 2019, published 2022) are described below.

For assay [1], the target named is T1, Recombinant human FAP (R&D systems, #3715-SE) (human).
T1 sequence: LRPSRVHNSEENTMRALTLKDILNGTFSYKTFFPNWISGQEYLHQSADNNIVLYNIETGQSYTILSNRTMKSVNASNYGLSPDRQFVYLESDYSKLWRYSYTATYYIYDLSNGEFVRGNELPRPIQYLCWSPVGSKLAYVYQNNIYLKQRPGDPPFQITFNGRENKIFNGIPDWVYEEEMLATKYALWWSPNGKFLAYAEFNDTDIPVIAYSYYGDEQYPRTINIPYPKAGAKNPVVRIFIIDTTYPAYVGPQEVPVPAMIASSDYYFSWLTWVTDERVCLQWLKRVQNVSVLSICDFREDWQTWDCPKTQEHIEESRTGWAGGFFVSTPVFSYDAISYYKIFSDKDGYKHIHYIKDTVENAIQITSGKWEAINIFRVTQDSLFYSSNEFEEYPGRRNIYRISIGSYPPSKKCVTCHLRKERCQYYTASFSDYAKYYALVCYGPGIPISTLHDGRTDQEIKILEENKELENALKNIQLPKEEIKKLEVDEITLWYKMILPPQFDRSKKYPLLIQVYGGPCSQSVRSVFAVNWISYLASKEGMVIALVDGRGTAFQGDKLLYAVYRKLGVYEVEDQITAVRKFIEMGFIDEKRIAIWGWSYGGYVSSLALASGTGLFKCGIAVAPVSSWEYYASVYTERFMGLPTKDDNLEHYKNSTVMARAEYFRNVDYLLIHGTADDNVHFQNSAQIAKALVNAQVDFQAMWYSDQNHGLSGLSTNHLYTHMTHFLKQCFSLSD

The target in assay [2] is human fibroblast activation protein (FAP) on FAP-expressing human WI-38 fibroblasts (human). As to the kind of experiment: competition FACS, WI-38 cells, vs Cy5-labeled compound; D: pIC50 ≤6.0. As to conditions: remark: other sources report otherwise.
The target in assay [3] is Recombinant human DPP4 (R&D systems, #9168-SE) (human).
For assay [4], the target named is recombinant human PREP (R&D systems, #4308-SE) (human).

Numbered stars: 1 amine (or outer) side, 2 acyl side, 3 side chain; on linkers, the order of the positions; unused ones are H or OH. Bridge positions count the residues as written; N and C are the ends. * marks the point of attachment. mXylylene = c1cc(C[*:1])cc(C[*:2])c1; Hexanoyl = CCCCCC(=O)*

Sequence of recombinant human PREP (R&D systems, #4308-SE) (human) (chain, as listed by the source limits assumed): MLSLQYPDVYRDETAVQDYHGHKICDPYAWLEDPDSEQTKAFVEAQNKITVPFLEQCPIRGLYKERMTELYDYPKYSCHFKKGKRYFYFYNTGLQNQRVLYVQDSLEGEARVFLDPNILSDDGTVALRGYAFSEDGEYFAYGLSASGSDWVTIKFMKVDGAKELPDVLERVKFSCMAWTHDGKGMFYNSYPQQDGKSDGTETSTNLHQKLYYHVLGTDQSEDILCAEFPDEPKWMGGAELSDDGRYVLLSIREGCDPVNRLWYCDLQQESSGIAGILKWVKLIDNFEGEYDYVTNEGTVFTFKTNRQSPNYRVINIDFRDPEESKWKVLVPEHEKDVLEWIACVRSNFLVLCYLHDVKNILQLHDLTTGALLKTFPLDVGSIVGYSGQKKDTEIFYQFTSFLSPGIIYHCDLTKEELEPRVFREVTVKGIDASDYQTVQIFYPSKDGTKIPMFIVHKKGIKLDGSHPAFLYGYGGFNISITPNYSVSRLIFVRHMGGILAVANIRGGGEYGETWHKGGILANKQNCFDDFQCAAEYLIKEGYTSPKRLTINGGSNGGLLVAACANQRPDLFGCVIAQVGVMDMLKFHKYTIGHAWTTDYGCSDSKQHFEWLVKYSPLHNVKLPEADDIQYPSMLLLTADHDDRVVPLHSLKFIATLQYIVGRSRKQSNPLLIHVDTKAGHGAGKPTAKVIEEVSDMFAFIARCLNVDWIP

B1: Hex-[Cys(3MeBn)-Pro-Pro-Thr-Glu(NH-Apr-DOTA')-Phe-Cys]-Asp-NH2 (peptide)
peptide: Hexanoyl-CPPTEFCD-NH2
modifications: linker 1-7 via mXylylene; not fully specified (residue 5); printed as Hex-[Cys(3MeBn)-Pro-Pro-Thr-Glu(NH-Apr-DOTA')-Phe-Cys]-Asp-NH2
B1: the pIC50 Category (Activity) in assay [1] is < 6 pIC50. Also, in assay [2], the pIC50 Category (FACS) is < 6 pIC50.
Regarding CPPTQFCD (N-terminal Hex; Cys1 and Cys7 linked as thioethers via 3MeBn; C-terminal NH2) [Hex-[Cys(3MeBn)-Pro-Pro-Thr-Gln-Phe-Cys]-Asp-NH2 (3BP-3476)], in assay [3], the pIC50 (DPP4) is < 6 pIC50. Moreover, the pIC50 (PREP) in assay [4] is < 6 pIC50.

B2: Hex-[Cys(tMeBn(DOTA-AET))-Pro-Pro-Thr-Gln-Phe-Cys]-Asp-NH2 (3BP-3426) (peptide)
peptide: CPPTQFCD
modifications: N-terminal Hex; Cys1 and Cys7 linked as thioethers via tMeBn(DOTA-AET); C-terminal NH2
B2: the pIC50 (DPP4) in assay [3] is < 6 pIC50. For the same molecule, the pIC50 (PREP) in assay [4] is < 6 pIC50.

B3: Hex-[Cys(3MeBn)-Pro-Pro-Thr-Glu-Ala-Cys]-NH2 (peptide)
peptide: Hexanoyl-CPPTEAC-NH2
modifications: linker 1-7 via mXylylene
SMILES: CCCCCC(=O)N[C@H]1CSCc2cccc(c2)CSC[C@@H](C(N)=O)NC(=O)[C@H](C)NC(=O)[C@H](CCC(=O)O)NC(=O)[C@H]([C@@H](C)O)NC(=O)[C@@H]2CCCN2C(=O)[C@@H]2CCCN2C1=O
Consider B3, for which, in assay [2], the pIC50 Category (FACS) was < 6 pIC50.
Regarding CPPTEFC (N-terminal Hex; Cys1 and Cys7 linked as thioethers via 3MeBn; C-terminal NH2) [Hex-[Cys(3MeBn)-Pro-Pro-Thr-Glu-Phe-Cys]-NH2 (3BP-3287)], the pIC50 (DPP4) in assay [3] is < 6 pIC50. In assay [4], the pIC50 (PREP) is < 6 pIC50.

B4: Hex-[Cys(3MeBn)-Ala-Pro-Thr-Glu-Phe-Cys]-NH2 (peptide)
peptide: Hexanoyl-CAPTEFC-NH2
modifications: linker 1-7 via mXylylene
SMILES: CCCCCC(=O)N[C@H]1CSCc2cccc(c2)CSC[C@@H](C(N)=O)NC(=O)[C@H](Cc2ccccc2)NC(=O)[C@H](CCC(=O)O)NC(=O)[C@H]([C@@H](C)O)NC(=O)[C@@H]2CCCN2C(=O)[C@H](C)NC1=O
For B4, in assay [2], the pIC50 Category (FACS) is < 6 pIC50.
